Assay: yeast display, Sf9 membrane polyspecificity reagent, FACS + sequencing; frameworks hold sequencing errors
Method in brief: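 Galactose induction of a Saccharomyces cerevisiae BJ5465 synthetic nanobody display library ran 36–48 hours. The cells were then stained for 1 hour at 4 °C with 10% biotinylated, detergent-solubilized Sf9 membrane reagent, pulled down on streptavidin microbeads and FACS-sorted into low and high (top ~1%) gates on expression and reagent-binding fluorescence. Labels for polyreactivity follow the gate of origin.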

In the case of “QVQLVESGGGLVQAGGSLRLSCAASGRTFYYYGMGWYRQAPGKERELVASITNGGNTNYADSVKGRFTISRDNAKYTVYLQMNSLKPEDTAVYYCAKDVPYWRPVVRYDYWGQGTQVTVSS”, the “polyreactivity (PSR sort gate)” value is reported as “low polyreactivity”.

In the case of “QVQLVESGGGLVQAGGSLRLSCAASGRTHIYAMGWYRQAPGKERELVAGISRSGTRTYYADSVKGRFTISRDNAKNTVYLQMNSLKPEDSAVYYCNAQAYYQGYDYWGQGTQVTVSS”, the “polyreactivity (PSR sort gate)” value is reported as “high polyreactivity”.

For “QVQLVESGGGLVQAGGSLRLSCAASGRTIAINAMGWYRQAPGKEREFVAAITSRSSRTYYADSVKGRFTISRDNAKNTVYLQMNSLKPEDTAVYYCARGSELGYYAWVYYWGQGTQVTVSS”, the “polyreactivity (PSR sort gate)” value was “high polyreactivity”.

With “QVQLVESGGGLVQAGGSLRLSCAASGRTIGIYARGWYRQAPVKERELVADITIGGSTYYADSVKGRFTISRDNAKNTVFIQINSLKPEDTAVYYCAARNPGYTRTGRRYDSWGQGTQVTVSS” the “polyreactivity (PSR sort gate)” value was “low polyreactivity”.

In the case of “QVQLVESGGGLVQAGGSLRLSCAASGRTIIRNTMGWYRQAPGKERELVARISYGGGRTYYADSVKGRFTISRDNAKNTVYLQMNSLKPEDTAVYYCAKVTPPFWGGYWYNYWGQGTQVTVSS”, the “polyreactivity (PSR sort gate)” value is reported as “high polyreactivity”.

In the case of “QVQLVESGGGLVQAGGSLRLSCAASGRTIIYNTMGWSRQAPGKEREFVAAINWSGGSTYYADSVKGCFTISRDNAKNTVYLQMNSLKPEDTAVYYCNAEAGYYRPLIYDYWGQGTQVTVSS”, the “polyreactivity (PSR sort gate)” value is reported as “low polyreactivity”.

For “QVQLVESGGGLVQAGGSLRLSCAASGRTIIYNTMGWYRQAPGKEREFVAAINWSGGSTYYADSVKGRFTISRDNAKNTVYLQMNSLKPEDTAVYYCNAEAGYYRPLIYDYWGQGTQVTVSS”, the “polyreactivity (PSR sort gate)” value was “low polyreactivity”.

With “QVQLVESGGGLVQAGGSLRLSCAASGRTIKYYDMGWYRQAPGKERELVADISGRGGSTYYADSVKGRFTISRDNAKNTVYLQMNSLIPEDTAVYYCNAEWFTSSYAHYGMEHWGQGTQVTVSS” the “polyreactivity (PSR sort gate)” value was “low polyreactivity”.

With “QVQLVESGGGLVQAGGSLRLSCAASGRTINRYAMGWYRQAPGKESELVASINKSGTSTYYADAVKGRFTISRDNAKNTVYLQMNCLKPEDTGVYYWKTRYFWCSTYDYWGQGTEVTVSS” the “polyreactivity (PSR sort gate)” value was “high polyreactivity”.

In the case of “QVQLVESGGGLVQAGGSLRLSCAASGRTIPTYVMGWYRQAPGKERELVASIRSGGRTKYADSVKGRFTISRDNAKNTVYLQMNSLKPEDTAVYYCAADYHGSPEYDYWGQGTQVTVSS”, the “polyreactivity (PSR sort gate)” value is reported as “low polyreactivity”.

In the case of “QVQLVESGGGLVQAGGSLRLSCAASGRTIQYYAMGWYRQAPGKERELVAAITRSGGRTYYADSVKGRFTISRDNAKNTVYLQMNSLKPEDTAVYYCARVSSSVHVDYDYWGQGTQVTVSS”, the “polyreactivity (PSR sort gate)” value is reported as “high polyreactivity”.

With “QVQLVESGGGLVQAGGSLRLSCAASGRTIRSYAMGWYRQAPGKERELVAAITGSGGRTYYADSVKGRFTISRDNAKNTVYLQMNSLKPEDTAVYYCAARLRGSYDYWGQGTQVTVSS” the “polyreactivity (PSR sort gate)” value was “high polyreactivity”.

For “QVQLVESGGGLVQAGGSLRLSCAASGRTIRYYAMGWYRQAPGKERELVAAITQNGGRTYYADSVKGRFTISRDNAKNTVYLQMNSLKPEDTAVYYCAKAFIQPGYKYDSWGQGTQVTVSS”, the “polyreactivity (PSR sort gate)” value was “high polyreactivity”.

For “QVQLVESGGGLVQAGGSLRLSCAASGRTIRYYAMGWYRQAPGKERELVAAITVTVTSTFYADSVKGRFTISRDDAKNTVYLQMNSLKPEDTAVYYCAKVDRQSPGQYYYWGQGSQVTVSS”, the “polyreactivity (PSR sort gate)” value was “low polyreactivity”.

With “QVQLVESGGGLVQAGGSLRLSCAASGRTISRNTMGWYRQAPGKERELVAGITYGGDRTYYADSVKGRFTISRDNAKNTVYLQMNSLKPEDTAVYYCAAPWYWKGLRDYWGQGTQVNVSS” the “polyreactivity (PSR sort gate)” value was “low polyreactivity”.

In the case of “QVQLVESGGGLVQAGGSLRLSCAASGRTISVYGMGWSRQAPGKERELVASITWRGGTTYYADSVKGRFTISRDNAKNSVYLQMNRLKPEDTAVYYCAAYWPYTTYRYRYDYWGQGTQVTVSS”, the “polyreactivity (PSR sort gate)” value is reported as “high polyreactivity”.

In the case of “QVQLVESGGGLVQAGGSLRLSCAASGRTISWYVMGWYRQAPGKERELVAAISWNGGRTYYADSVKGRFTISRDNAKNTVYLQMNSLKPEDTAVYYCAAKNYHGYPFDYWGQGTQVTVSS”, the “polyreactivity (PSR sort gate)” value is reported as “high polyreactivity”.

In the case of “QVQLVESGGGLVQAGGSLRLSCAASGRTISYAMGWYRQAPGKERELVAAIRYRGGSTYYADSVKGRFTISRDNAKNTVYLQMNSLKPEDTADYYCDAQDSYTPPILFRRGYLRYDYWGQGTQVTVSS”, the “polyreactivity (PSR sort gate)” value is reported as “low polyreactivity”.

With “QVQLVESGGGLVQAGGSLRLSCAASGRTIVAYAMGWYRQAPGKERELVAAISWSTGSTYYADSVKGRFTISRDNAKNTVYLQMNSLKPEDTAVYYCAGLVWAPRDYWGQGTQVTVSS” the “polyreactivity (PSR sort gate)” value was “low polyreactivity”.

With “QVQLVESGGGLVQAGGSLRLSCAASGRTIVLYVMGWYRQAPGKEREFVADINAGGGSTYYADSVKGRFTISRDNAKNTVYLQMNSLKPEDTSVYYCAATRDLGQLFRFGYWGQSTQVTVSS” the “polyreactivity (PSR sort gate)” value was “low polyreactivity”.

With “QVQLVESGGGLVQAGGSLRLSCAASGRTIVYYAMGWYRQAPGKERDFVAAISRSGGRTSYADSVKGRFTISRDNAKNTVYLQMNSLKPEDTAVYYCAAEKRTQPTSREYYWGQGTQVTVSS” the “polyreactivity (PSR sort gate)” value was “high polyreactivity”.

For “QVQLVESGGGLVQAGGSLRLSCAASGRTIWWYAMGWYRQAPGKERELVAAITWIGGSTYYADSVKGRFTISRDNAKNTVYLQMNSLKPEDTAVYYCATDKDDVSDLGKDYAYFEYDYWGQGTQVTVSS”, the “polyreactivity (PSR sort gate)” value was “low polyreactivity”.

For “QVQLVESGGGLVQAGGSLRLSCAASGRTIYQYAKGWYRPAPGKERELVAAISRGGSTNYADSLKGRFTISRDNAKNTVLLQLNSLKPEDTAVYDCASWYKCLSLKRLYERDYWGHGTQVTVSS”, the “polyreactivity (PSR sort gate)” value was “high polyreactivity”.

For “QVQLVESGGGLVQAGGSLRLSCAASGRTIYWNAMVWSRQAPGKERELVAAISNGGTTTYYADSVKGRFTISRDNAKNTVYLQMNSLKPEDTAVYYCAGDIRYFDYDYWGQGTQLTVSS”, the “polyreactivity (PSR sort gate)” value was “high polyreactivity”.

With “QVQLVESGGGLVQAGGSLRLSCAASGRTIYYNAIGRYIQAPVKEREFVATITCSGGSTYADSVKGRFTISRDNAKNTVYLQMNSLKPEDTAVYYCNADFSYTSEDQRALFTNVYYWGQGTQVTVSS” the “polyreactivity (PSR sort gate)” value was “low polyreactivity”.

For “QVQLVESGGGLVQAGGSLRLSCAASGRTLARNAKGWYRQAPGKERELVASINGRTTRTYYADSVKGRFTISRDNAKNTVYLQMNSLKPEDTAVYYCAADPPGYVYGKRYYWGQGTQVTVSS”, the “polyreactivity (PSR sort gate)” value was “high polyreactivity”.

In the case of “QVQLVESGGGLVQAGGSLRLSCAASGRTLASNAMGWYRQAPGKERELVAAINRGGSTYYADSVKGRFTISRDNAKNTVYLQMNSLKPEETAVYYCAVDRYRYPFDYWGQGTQVTVSS”, the “polyreactivity (PSR sort gate)” value is reported as “low polyreactivity”.

In the case of “QVQLVESGGGLVQAGGSLRLSCAASGRTLCVNAMGWYRQAPGKERELVAAISTRGTTTNYADSVKGRFTISRDIAKNTVYLQMNSLKPEDSAVYYCATRTYRTYPRYDYWGQGTQVTVSS”, the “polyreactivity (PSR sort gate)” value is reported as “low polyreactivity”.

With “QVQLVESGGGLVQAGGSLRLSCAASGRTLDIYTMGWYRQAPGKERELVAAISWSGGSTYYADSVKGRFTISRDNAKNTVYLQMNSLKPEDTAVYYCNRVPISYAGQLEHSLYDFWGQGTQVTVSS” the “polyreactivity (PSR sort gate)” value was “low polyreactivity”.

In the case of “QVQLVESGGGLVQAGGSLRLSCAASGRTLDVYAMGWYRQAPGKERELVADINWSGGRTYYADSVKGRFTISRDNAKNTVYLQMNSLIPEDTAVFYCAADLSWRQYYREYDYWGQGTQVTVSS”, the “polyreactivity (PSR sort gate)” value is reported as “high polyreactivity”.

For “QVQLVESGGGLVQAGGSLRLSCAASGRTLFGYAMGWYRQAPGKERELVAAITYGATSTYADSVKGRFTISRDNAKNTVYLQMNSLKPEDTAVYYCNAYTPTDGFDYWGQGTQVTVSS”, the “polyreactivity (PSR sort gate)” value was “low polyreactivity”.

For “QVQLVESGGGLVQAGGSLRLSCAASGRTLFRYAMGWYRQAPGKERELVAAISRSGGTTYYADSVKGRFTISRDNAKNTVYLQMNSLKPEDTAVYYCAARFVLRRDYGYWGQGTQVTVSS”, the “polyreactivity (PSR sort gate)” value was “high polyreactivity”.
